Assay results reported in patent US20220213467A1 (YEDA RESEARCH AND DEVELOPMENT, published 2022).

What was measured:
[1] = target: T1, pre-wedge, gp10-7-8 complex (bacteriophage T4) (bacteriophage T4, UniProt P10928 1-602; P19061 1-1032; P19062 1-334); assay: on-chip gene titration, yield calculated from post-staining
T1 construct: also called pre-wedges

[2] = target: T2, gp7, bacteriophage T4 gene product 7 (bacteriophage T4, UniProt P19061 1-1032); assay: on-chip assemblograms in 1D compartments on gp11-HA, post-staining with gp8
T2 construct: Expressed cell-free; also called gene-7 product
T2 sequence: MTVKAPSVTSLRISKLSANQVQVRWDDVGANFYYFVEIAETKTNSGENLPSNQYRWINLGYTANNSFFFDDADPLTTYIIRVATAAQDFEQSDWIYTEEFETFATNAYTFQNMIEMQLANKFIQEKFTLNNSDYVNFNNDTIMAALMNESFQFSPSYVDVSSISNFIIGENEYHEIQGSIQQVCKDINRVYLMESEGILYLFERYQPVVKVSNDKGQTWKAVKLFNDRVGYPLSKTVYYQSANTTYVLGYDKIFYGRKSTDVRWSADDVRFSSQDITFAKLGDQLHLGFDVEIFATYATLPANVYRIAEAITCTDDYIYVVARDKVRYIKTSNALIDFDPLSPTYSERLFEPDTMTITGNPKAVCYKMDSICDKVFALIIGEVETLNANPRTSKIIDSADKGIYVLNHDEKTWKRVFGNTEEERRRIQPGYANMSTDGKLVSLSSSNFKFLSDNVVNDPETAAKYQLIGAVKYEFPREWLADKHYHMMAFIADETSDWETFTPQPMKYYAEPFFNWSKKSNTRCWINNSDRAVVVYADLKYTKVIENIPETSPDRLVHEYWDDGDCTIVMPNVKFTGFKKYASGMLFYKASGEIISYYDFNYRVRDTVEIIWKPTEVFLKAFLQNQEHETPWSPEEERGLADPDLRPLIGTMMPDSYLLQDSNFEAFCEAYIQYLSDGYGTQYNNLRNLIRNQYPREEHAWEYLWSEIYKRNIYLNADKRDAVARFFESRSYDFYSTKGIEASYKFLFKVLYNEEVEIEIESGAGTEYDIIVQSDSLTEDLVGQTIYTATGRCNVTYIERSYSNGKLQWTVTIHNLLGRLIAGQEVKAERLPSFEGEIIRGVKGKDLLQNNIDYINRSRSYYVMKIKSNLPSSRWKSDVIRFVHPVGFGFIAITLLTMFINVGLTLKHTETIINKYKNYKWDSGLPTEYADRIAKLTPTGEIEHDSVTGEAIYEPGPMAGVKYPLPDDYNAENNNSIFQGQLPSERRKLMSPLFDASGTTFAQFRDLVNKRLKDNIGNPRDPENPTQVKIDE

[3] = target: T3, gp10-7 complex (bacteriophage T4) (bacteriophage T4, UniProt P10928 1-602; P19061 1-1032); assay: on-chip assemblograms in 1D compartments, post-staining
T3 construct: also called gp10-7 complexes

B1: gp6, bacteriophage T4 gene product 6 (other)
chain: MANTPVNYQLTRTANAIPEIFVGGTFAEIKQNLIEWLNGQNEFLDYDFEGSRLNVLCDLLAYNTLYIQQFGNAAVYESFMRTANLRSSVVQAAQDNGYLPTSKSAAQTEIMLTCTDALNRNYITIPRGTRFLAYAKDTSVNPYNFVSREDVIAIRDKNNQYFPRLKLAQGRIVRTEIIYDKLTPIIIYDKNIDRNQVKLYVDGAEWINWTRKSMVHAGSTSTIYYMRETIDGNTEFYFGEGEISVNASEGALTANYIGGLKPTQNSTIVIEYISTNGADANGAVGFSYADTLTNITVININENPNDDPDFVGADGGGDPEDIERIRELGTIKRETQQRCVTATDYDTFVSERFGSIIQAVQTFTDSTKPGYAFIAAKPKSGLYLTTVQREDIKNYLKDYNLAPITPSIISPNYLFIKTNLKVTYALNKLQESEQWLEGQIIDKIDRYYTEDVEIFNSSFAKSKMLTYVDDADHSVIGSSATIQMVREVQNFYKTPEAGIKYNNQIKDRSMESNTFSFNSGRKVVNPDTGLEEDVLYDVRIVSTDRDSKGIGKVIIGPFASGDVTENENIQPYTGNDFNKLANSDGRDKYYVIGEINYPADVIYWNIAKINLTSEKFEVQTIELYSDPTDDVIFTRDGSLIVFENDLRPQYLTIDLEPISQ
notes: Expressed cell-free; also called gene-6 product
B1: binds [1].

B2: gp10, bacteriophage T4 gene product 10 (other)
chain: MKQNINIGNVVDDGTGDYLRKGGIKINENFDELYYELGDGDVPYSAGAWKTYNASSGQTLTAEWGKSYAINTSSGRVTINLPKGTVNDYNKVIRARDVFATWNVNPVTLVAASGDTIKGSAVPVEINVRFSDLELVYCAPGRWEYVKNKQIDKITSSDISNVARKEFLVEVQGQTDFLDVFRGTSYNVNNIRVKHRGNELYYGDVFSENSDFGSPGENEGELVPLDGFNIRLRQPCNIGDTVQIETFMDGVSQWRSSYTRRQIRLLDSKLTSKTSLEGSIYVTDLSTMKSIPFSAFGLIPGEPINPNSLEVRFNGILQELAGTVGMPLFHCVGADSDDEVECSVLGGTWEQSHTDYSVETDENGIPEILHFDSVFEHGDIINITWFNNDLGTLLTKDEIIDETDNLYVSQGPGVDISGDVNLTDFDKIGWPNVEAVQSYQRAFNAVSNIFDTIYPIGTIYENAVNPNNPVTYMGFGSWKLFGQGKVLVGWNEDISDPNFALNNNDLDSGGNPSHTAGGTGGSTSVTLENANLPATETDEEVLIVDENGSVIVGGCQYDPDESGPIYTKYREAKASTNSTHTPPTSITNIQPYITVYRWIRIA
notes: also called gene-10 product
B2: binds [2].

B3: gp8, bacteriophage T4 gene product 8 (other)
chain: MNDSSVIYRAIVTSKFRTEKMLNFYNSIGSGPDKNTIFITFGRSEPWSSNENEVGFAPPYPTDSVLGVTDMWTHMMGTVKVLPSMLDAVIPRRDWGDTRYPDPYTFRINDIVVCNSAPYNATESGAGWLVYRCLDVPDTGMCSIASLTDKDECLKLGGKWTPSARSMTPPEGRGDAEGTIEPGDGYVWEYLFEIPPDVSINRCTNEYIVVPWPEELKEDPTRWGYEDNLTWQQDDFGLIYRVKANTIRFKAYLDSVYFPEAALPGNKGFRQISIITNPLEAKAHPNDPNVKAEKDYYDPEDLMRHSGEMIYMENRPPIIMAMDQTEEINILFTF
notes: Expressed cell-free; also called gene-8 product
B3: binds [3].
